Experimental data published in publication PMC4267659 (Nucleic Acids Research, 2014).

Experiments:
Test in all cases: native gel or EMSA
[1] = molecular target: T1, P. horikoshii aEF1α K125L mutant (Pyrococcus horikoshii, UniProt O59153 1-428, K125L)
T1 sequence: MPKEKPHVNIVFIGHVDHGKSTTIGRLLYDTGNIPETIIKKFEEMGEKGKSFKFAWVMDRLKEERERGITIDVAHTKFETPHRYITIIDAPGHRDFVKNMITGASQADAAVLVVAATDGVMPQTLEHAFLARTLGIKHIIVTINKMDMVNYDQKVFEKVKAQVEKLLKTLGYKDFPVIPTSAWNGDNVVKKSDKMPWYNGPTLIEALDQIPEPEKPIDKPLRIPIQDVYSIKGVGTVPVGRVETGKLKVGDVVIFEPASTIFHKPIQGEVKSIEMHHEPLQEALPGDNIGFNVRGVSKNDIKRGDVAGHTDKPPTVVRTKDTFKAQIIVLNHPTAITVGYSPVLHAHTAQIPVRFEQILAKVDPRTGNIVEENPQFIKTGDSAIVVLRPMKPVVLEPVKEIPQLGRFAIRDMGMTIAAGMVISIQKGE

[2] = molecular target: T2, P. horikoshii aEF1α R132L mutant (Pyrococcus horikoshii, UniProt O59153 1-428, R132L)
T2 sequence: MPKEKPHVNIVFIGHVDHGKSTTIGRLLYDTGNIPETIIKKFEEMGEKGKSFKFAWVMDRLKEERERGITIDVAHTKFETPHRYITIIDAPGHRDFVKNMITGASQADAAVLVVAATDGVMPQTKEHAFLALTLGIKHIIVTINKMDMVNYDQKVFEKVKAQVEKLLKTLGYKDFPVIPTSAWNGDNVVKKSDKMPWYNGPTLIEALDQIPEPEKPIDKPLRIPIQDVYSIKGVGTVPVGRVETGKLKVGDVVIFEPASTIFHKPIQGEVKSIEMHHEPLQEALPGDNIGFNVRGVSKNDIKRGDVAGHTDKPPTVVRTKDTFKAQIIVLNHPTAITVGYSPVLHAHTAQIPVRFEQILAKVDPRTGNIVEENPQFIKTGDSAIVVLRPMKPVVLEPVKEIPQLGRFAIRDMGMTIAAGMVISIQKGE

[3] = molecular target: T3, P. horikoshii aEF1α L166S mutant (Pyrococcus horikoshii, UniProt O59153 1-428, L166S)
T3 sequence: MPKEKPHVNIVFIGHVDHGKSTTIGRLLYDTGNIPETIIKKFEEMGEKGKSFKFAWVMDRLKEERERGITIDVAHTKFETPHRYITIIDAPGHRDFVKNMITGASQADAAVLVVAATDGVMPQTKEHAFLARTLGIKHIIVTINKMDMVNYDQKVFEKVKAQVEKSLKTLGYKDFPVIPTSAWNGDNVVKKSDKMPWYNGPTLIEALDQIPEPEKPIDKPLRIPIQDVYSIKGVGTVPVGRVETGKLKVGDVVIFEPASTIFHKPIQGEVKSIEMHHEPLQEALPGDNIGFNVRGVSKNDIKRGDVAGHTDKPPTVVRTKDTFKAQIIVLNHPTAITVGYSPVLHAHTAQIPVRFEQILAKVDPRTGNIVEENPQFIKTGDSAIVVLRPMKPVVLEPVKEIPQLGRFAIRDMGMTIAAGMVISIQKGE

[4] = molecular target: T4, P. horikoshii aEF1α S423L mutant (Pyrococcus horikoshii, UniProt O59153 1-428, S423L)
T4 sequence: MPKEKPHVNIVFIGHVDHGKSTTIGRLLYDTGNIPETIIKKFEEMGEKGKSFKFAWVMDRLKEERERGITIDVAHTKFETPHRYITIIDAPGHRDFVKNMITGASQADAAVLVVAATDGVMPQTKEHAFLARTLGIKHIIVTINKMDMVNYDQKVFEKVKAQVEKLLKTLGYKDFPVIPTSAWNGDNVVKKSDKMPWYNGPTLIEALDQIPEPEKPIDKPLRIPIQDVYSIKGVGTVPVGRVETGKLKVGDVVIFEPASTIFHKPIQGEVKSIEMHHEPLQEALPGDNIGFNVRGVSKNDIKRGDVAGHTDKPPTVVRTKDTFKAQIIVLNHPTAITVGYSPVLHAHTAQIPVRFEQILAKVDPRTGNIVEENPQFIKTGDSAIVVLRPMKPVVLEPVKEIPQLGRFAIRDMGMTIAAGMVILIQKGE

[5] = molecular target: T5, P. horikoshii aEF1α A360S mutant (Pyrococcus horikoshii, UniProt O59153 1-428, A360S)
T5 sequence: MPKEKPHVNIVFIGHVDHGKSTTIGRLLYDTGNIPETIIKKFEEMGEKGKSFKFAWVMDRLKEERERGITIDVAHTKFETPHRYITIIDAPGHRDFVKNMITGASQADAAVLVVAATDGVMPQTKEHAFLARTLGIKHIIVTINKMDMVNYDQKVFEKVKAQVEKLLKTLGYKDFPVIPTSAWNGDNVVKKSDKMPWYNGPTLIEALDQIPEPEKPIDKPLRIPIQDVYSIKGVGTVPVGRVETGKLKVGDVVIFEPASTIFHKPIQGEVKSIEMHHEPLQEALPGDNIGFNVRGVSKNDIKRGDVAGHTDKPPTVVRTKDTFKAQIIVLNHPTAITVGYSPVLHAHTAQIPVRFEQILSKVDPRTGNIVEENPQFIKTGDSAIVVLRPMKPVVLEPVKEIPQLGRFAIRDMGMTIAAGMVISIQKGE

[6] = molecular target: T6, P. horikoshii aEF1α L359S mutant (Pyrococcus horikoshii, UniProt O59153 1-428, L359S)
T6 sequence: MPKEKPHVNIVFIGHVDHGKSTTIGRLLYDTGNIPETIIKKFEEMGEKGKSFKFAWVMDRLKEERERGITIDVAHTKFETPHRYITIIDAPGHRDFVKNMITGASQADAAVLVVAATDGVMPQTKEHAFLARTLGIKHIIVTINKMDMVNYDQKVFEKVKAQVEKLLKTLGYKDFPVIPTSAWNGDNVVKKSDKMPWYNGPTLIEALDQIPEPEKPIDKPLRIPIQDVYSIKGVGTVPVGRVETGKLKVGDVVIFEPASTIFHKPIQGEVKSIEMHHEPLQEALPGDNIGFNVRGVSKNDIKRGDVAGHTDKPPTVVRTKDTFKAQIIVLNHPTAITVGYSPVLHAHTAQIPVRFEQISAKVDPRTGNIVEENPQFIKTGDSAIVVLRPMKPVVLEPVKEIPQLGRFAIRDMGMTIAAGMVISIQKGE

[7] = molecular target: T7, Pyrococcus horikoshii elongation factor aEF1α, wild type (Pyrococcus horikoshii, UniProt O59153 1-428)
T7 sequence: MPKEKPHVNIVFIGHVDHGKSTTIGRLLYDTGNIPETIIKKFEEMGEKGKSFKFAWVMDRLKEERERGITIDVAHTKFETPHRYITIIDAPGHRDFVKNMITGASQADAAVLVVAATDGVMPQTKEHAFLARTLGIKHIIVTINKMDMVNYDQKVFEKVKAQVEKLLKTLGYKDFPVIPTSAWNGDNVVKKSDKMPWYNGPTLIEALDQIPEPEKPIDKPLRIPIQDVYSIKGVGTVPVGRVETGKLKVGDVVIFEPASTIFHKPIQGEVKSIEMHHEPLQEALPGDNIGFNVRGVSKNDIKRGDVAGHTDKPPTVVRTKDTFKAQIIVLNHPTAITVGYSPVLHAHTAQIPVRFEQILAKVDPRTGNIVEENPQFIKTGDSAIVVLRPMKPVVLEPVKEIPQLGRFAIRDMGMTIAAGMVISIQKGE

Measured: binding result

B1: Pyrococcus horikoshii ribosomal stalk protein aP1, wild type (natural protein, UniProt O57705 1-108, looked up)
chain: MEYVYAALLLHSVGKEINEENLKAVLQAAGVEPEEARIKALVAALEGVNIDEVIEKAAMPVAVAAAPAAAPAEAGGEEKKEEEKKEEEEKEEEVSEEEALAGLSALFG
binds: [1] | [2] | [3] | [4] | [5] | [6]

B2: P. horikoshii aP1 L100S mutant (natural protein, Pyrococcus horikoshii, UniProt O57705 1-108, looked up)
chain: MEYVYAALLLHSVGKEINEENLKAVLQAAGVEPEEARIKALVAALEGVNIDEVIEKAAMPVAVAAAPAAAPAEAGGEEKKEEEKKEEEEKEEEVSEEEASAGLSALFG
binds: [7]
